According to patent US20160355553A1 (Janssen / Centocor, published 2016):

How the values were obtained:
[1] = biological target: hemagglutinin of influenza virus A/EW/MPD411/07 (H6) (influenza A virus H6); test: cell-based or functional assay
[2] = biological target: hemagglutinin of influenza virus A/Env/MPU3156/05 (H2) (influenza A virus H2); test: cell-based or functional assay
[3] = biological target: hemagglutinin of influenza virus A/Brisbane/59/2007 (H1) (influenza A virus H1N1, UniProt B4URD6 18-565); test: cell-based or functional assay
[4] = biological target: hemagglutinin of influenza virus A/Hiroshima/52/2005 (H3) (influenza A virus H3); test: cell-based or functional assay
[5] = biological target: hemagglutinin of influenza virus A/Brisbane/10/2007 (H3) (influenza A virus H3); test: cell-based or functional assay
[6] = biological target: hemagglutinin of influenza virus A/Panama/2007/1999 (H3) (influenza A virus H3); test: cell-based or functional assay
[7] = biological target: hemagglutinin of influenza virus A/EW/MPF461/07 (H5) (influenza A virus H5); test: cell-based or functional assay
[8] = biological target: hemagglutinin of influenza virus A/Chick/Germany/N/49 (H10) (influenza A virus H10); test: cell-based or functional assay
[9] = biological target: mini2 cluster11 (A/Brisbane/59/2007) (influenza A virus H1N1, UniProt A8C8J4 18-565); test: FACS on HEK293F
[10] = biological target: mini1 cluster11 (A/Brisbane/59/2007) (influenza A virus H1N1, UniProt A8C8J4 18-565); test: FACS on HEK293F
[11] = biological target: mini4 cluster11 (A/Brisbane/59/2007) (influenza A virus H1N1, UniProt A8C8J4 18-565); test: FACS on HEK293F
[12] = biological target: mini4 cluster11+5 (A/Brisbane/59/2007) (influenza A virus H1N1, UniProt A8C8J4 18-565); test: FACS on HEK293F
[13] = biological target: mini2 cluster11+5 (A/Brisbane/59/2007) (influenza A virus H1N1, UniProt A8C8J4 18-565); test: FACS on HEK293F
[14] = biological target: mini3 cluster11 (A/Brisbane/59/2007) (influenza A virus H1N1, UniProt A8C8J4 18-565); test: FACS on HEK293F
[15] = biological target: mini3 cluster11+5 (A/Brisbane/59/2007) (influenza A virus H1N1, UniProt A8C8J4 18-565); test: FACS on HEK293F
[16] = biological target: mini1 cluster11+5 (A/Brisbane/59/2007) (influenza A virus H1N1, UniProt A8C8J4 18-565); test: FACS on HEK293F
[17] = biological target: H3 Full-length A/Hong Kong/1/1968 (influenza A virus H3N2, UniProt Q91MA7 17-566); test: FACS on HEK293F [D00014 FIG. 10B]
[18] = biological target: HK68 H3m2-cl9+10+11+13-GCN4 (influenza A virus H3N2, UniProt Q91MA7 17-566); test: FACS on HEK293F [D00014 FIG. 10B]
[19] = biological target: miniHA cluster1+2+3 (A/Brisbane/59/2007) (influenza A virus H1N1, UniProt A8C8J4 18-565); test: FACS on HEK293F
[20] = biological target: miniHA cluster1+2 (A/Brisbane/59/2007) (influenza A virus H1N1, UniProt A8C8J4 18-565); test: FACS on HEK293F
H1-PR8-dH1 = H1-PR8-dH1 (influenza A virus H1N1, UniProt P03452 18-565); test: FACS on HEK293F
[21] = biological target: H1 Full-length (A/Brisbane/59/2007) (influenza A virus H1N1, UniProt B4URD6 18-565); test: FACS on HEK293F
[22] = biological target: miniHA cluster1 (A/Brisbane/59/2007) (influenza A virus H1N1, UniProt A8C8J4 18-565); test: FACS on HEK293F
[23] = biological target: miniHA cluster1+2+3+4 (A/Brisbane/59/2007) (influenza A virus H1N1, UniProt A8C8J4 18-565); test: FACS on HEK293F
[24] = biological target: miniHA cluster1+3 (A/Brisbane/59/2007) (influenza A virus H1N1, UniProt A8C8J4 18-565); test: FACS on HEK293F
[25] = biological target: H1 FL HA A/Puerto Rico/8/1934 (influenza A virus H1N1, UniProt P03452 18-565); test: FACS on HEK293F
[26] = biological target: HK68 H3mini2a-linker+cl9_+10+12+16+CG7-GCN4T (influenza A virus H3N2, UniProt Q91MA7 17-566); test: FACS on HEK293F
[27] = biological target: H3 HK68 mini2a-linker2+cl9_+10+12+GCN4T (influenza A virus H3N2, UniProt Q91MA7 17-566); test: FACS on HEK293F
[28] = biological target: HK68 H3mini2a-linker+cl9_+10+12+19+GCN4T (influenza A virus H3N2, UniProt P12584 1-550); test: FACS on HEK293F
[29] = biological target: HK68 H3mini2a-linker+cl9_+10+12+17+CG7-GCN4T (influenza A virus H3N2, UniProt Q91MA7 17-566); test: FACS on HEK293F

B1: CR9114 (antibody, V domains shown)
VH: QVQLVQSGAEVKKPGSSVKVSCKSSGGTSNNYAISWVRQAPGQGLDWMGGISPIFGSTAYAQKFQGRVTISADIFSNTAYMELNSLTSEDTAVYFCARHGNYYYYSGMDVWGQGTTVTVSS
VL: SYVLTQPPAVSGTPGQRVTISCSGSDSNIGRRSVNWYQQFPGTAPKLLIYSNDQRPSVVPDRFSGSKSGTSASLAISGLQSEDEAEYYCAAWDDSLKGAVFGGGTQLTVL
Question: Which results are given for B1?
Answer: virus neutralization assay on MDCK cells, geomean IC50 [1]: 10.5 µg/mL; virus neutralization assay on MDCK cells, geomean IC50 [2]: 8.8 µg/mL; virus neutralization assay on MDCK cells, geomean IC50 [3]: 2.6 µg/mL; virus neutralization assay on MDCK cells, geomean IC50 [4]: 12.5 µg/mL; virus neutralization assay on MDCK cells, geomean IC50 [5]: 5.6 µg/mL; virus neutralization assay on MDCK cells, geomean IC50 [6]: 39.9 µg/mL; virus neutralization assay on MDCK cells, geomean IC50 [7]: 10.5 µg/mL; virus neutralization assay on MDCK cells, geomean IC50 [8]: 15.7 µg/mL

B2: CR8057 (antibody, V domains shown)
VH: EVQLVESGGGLVQPGGSLRLSCAASGFTDSVIFMSWVRQAPGKGLECVSIIYIDDSTYYADSVKGRFTISRHNSMGTVFLEMNSLRPDDTAVYYCATESGDFGDQTGPYHYYAMDV
VL: QSALTQPASVSGSPGQSITISCTGSSGDIGGYNAVSWYQHHPGKAPKLMIYEVTSRPSGVSDRFSASRSGDTASLTVSGLQAEDEAHYYCCSFADSNILI
Question: Does B2 bind [9]?
Answer: Result: no binding (tested: 5 ug/ml)

Question: Does B2 bind [10]?
Answer: Result: no binding (tested: 5 ug/ml)

Question: Does B2 bind [11]?
Answer: Result: no binding (tested: 5 ug/ml)

Question: Does B2 bind [12]?
Answer: Result: no binding (tested: 5 ug/ml)

Question: Does B2 bind [13]?
Answer: Result: no binding (tested: 5 ug/ml)

Question: Does B2 bind [14]?
Answer: Result: no binding (tested: 5 ug/ml)

Question: Does B2 bind [15]?
Answer: Result: no binding (tested: 5 ug/ml)

Question: Does B2 bind [16]?
Answer: Result: no binding (tested: 5 ug/ml)

Question: Does B2 bind [17]?
Answer: Result: no binding (tested: 5 ug/ml)

Question: Does B2 bind [18]?
Answer: Result: no binding (tested: 5 ug/ml)

Question: Does B2 bind [19]?
Answer: Result: no binding (tested: 5 ug/ml)

Question: Does B2 bind [20]?
Answer: Result: no binding (tested: 5 ug/ml)

Question: Does B2 bind (H1-PR8-dH1)?
Answer: Result: no binding (tested: 5 ug/ml)

Question: Does B2 bind [21]?
Answer: Result: no binding (tested: 5 ug/ml)

Question: Does B2 bind [22]?
Answer: Result: no binding (tested: 5 ug/ml)

Question: Does B2 bind [23]?
Answer: Result: no binding (tested: 5 ug/ml)

Question: Does B2 bind [24]?
Answer: Result: no binding (tested: 5 ug/ml)

Question: Does B2 bind [25]?
Answer: Result: no binding (tested: 5 ug/ml)

Question: Does B2 bind [26]?
Answer: Result: no binding (tested: 5 ug/ml)

Question: Does B2 bind [27]?
Answer: Result: no binding (tested: 5 ug/ml)

Question: Does B2 bind [28]?
Answer: Result: no binding (tested: 5 ug/ml)

Question: Does B2 bind [29]?
Answer: Result: no binding (tested: 5 ug/ml)
